The results in this text go back to paper PMC3783163, “Attachment site recognition and regulation of directionality by the serine integrases”.

For orientation: Kd means the concentration at which binding is half-saturated. Low readings indicate a tighter complex, high ones a looser complex.

Series [1] has as its system LI integrase WT (Listeria innocua prophage (CLIP 11262; cloned from ATCC BAA-680D genomic DNA)). Put plainly: EMSA. Conditions: EMSA: 20 mM Tris-HCl pH 7.4, 150 mM KCl, 2 mM DTT, 25 ug/ml BSA, 25 ug/ml salmon sperm DNA, 5% glycerol, ~1 nM DNA, 30 min at 30 C; 6% PAGE Tris-glycine pH …. For orientation: Mobility shift assays separate free from complexed probe on a gel.
Series [2] concerns LI integrase ΔZD (Listeria innocua prophage (CLIP 11262; cloned from ATCC BAA-680D genomic DNA)). Nature of the series: EMSA. As to conditions: EMSA: 20 mM Tris-HCl pH 7.4, 150 mM KCl, 2 mM DTT, 25 ug/ml BSA, 25 ug/ml salmon sperm DNA, 5% glycerol, ~1 nM DNA, 30 min at 30 C; 6% PAGE Tris-glycine pH ….
A further series addresses T1, LI integrase CTD (Listeria innocua prophage (CLIP 11262; …, UniProt Q928V6 133-452).
T1 sequence: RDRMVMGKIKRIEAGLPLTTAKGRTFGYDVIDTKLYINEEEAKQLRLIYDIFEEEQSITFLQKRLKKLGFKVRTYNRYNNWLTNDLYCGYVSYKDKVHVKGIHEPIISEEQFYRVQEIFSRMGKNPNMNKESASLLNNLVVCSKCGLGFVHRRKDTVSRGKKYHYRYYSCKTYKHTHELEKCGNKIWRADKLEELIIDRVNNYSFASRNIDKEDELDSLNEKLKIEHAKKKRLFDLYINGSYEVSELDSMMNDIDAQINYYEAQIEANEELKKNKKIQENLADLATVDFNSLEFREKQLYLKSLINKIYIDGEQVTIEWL
Nature of the series: crystal structure (3.2 A); Zn2+ bound; 13 mM CaCl2 in drop; EMSA: 20 mM Tris-HCl pH 7.4, 150 mM KCl, 2 mM DTT, 25 ug/ml BSA, 25 ug/ml salmon sperm DNA, 5% glycerol, ~1 nM DNA, 30 min at 30 C; 6% PAGE Tris-glycine pH 8.3. Conditions: protein: recombinant; tags: C-terminal His6 (LEH6); 5' overhangs 1 nt (G top, C bottom), 25 bp duplex.

LI attP 119-bp probe yielded a dissociation constant Kd in series [1] of 20 nM. In series [2], this molecule returned a binding signal (fold weaker than WT) of 25.

Molecule LI attB 119-bp probe had a Kd in series [1] of 20 nM. Moreover, the binding signal (fold weaker than WT) in series [2] stood at 25.

B1: A118 attP P-arm half-site (crystal) (dsDNA)
DNA 1: GTTTAGTTCCTCGTTTTCTCTCGTTG
DNA 2: CCAACGAGAGAAAACGAGGAACTAAA
For the molecule B1, in the series with LI integrase CTD, the binding result is listed as “binds”.
